# Measurements from patent US20050136043A1, “TGFbeta signaling inhibitors” (Ludwig Institute for Cancer Research, priority 2003, published 2005).
# No end group written: not given here.
# Biological target: GST-TβR-I (GST fused to the cytoplasmic part, residues 148-503, of constitutively active TβR-I T204D, FLAG-tagged at the C-terminus), P36897
# Test: cell-based or functional assay
# GST-TβR-I (GST fused to the cytoplasmic part, residues 148-503, of constitutively active TβR-I T204D, FLAG-tagged at the C-terminus), P36897, sequence (P36897 148-503 T204D, form in doubt): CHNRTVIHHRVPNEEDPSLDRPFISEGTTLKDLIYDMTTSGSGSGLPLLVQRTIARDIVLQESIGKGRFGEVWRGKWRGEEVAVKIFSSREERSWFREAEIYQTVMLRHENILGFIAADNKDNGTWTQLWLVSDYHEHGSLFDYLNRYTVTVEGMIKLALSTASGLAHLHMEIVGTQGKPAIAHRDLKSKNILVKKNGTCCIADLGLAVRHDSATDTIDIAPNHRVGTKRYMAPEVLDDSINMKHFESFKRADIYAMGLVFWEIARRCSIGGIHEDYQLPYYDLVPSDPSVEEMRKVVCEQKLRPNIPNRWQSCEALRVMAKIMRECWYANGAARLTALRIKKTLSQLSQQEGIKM
"peptide concentration at which the effect was observed, in vitro kinase assay","peptide concentration of maximal inhibition, in vitro kinase assay",Binder
10 µM,200 µM,RQIKIWFQNRRMKWKKTQMGSPSVRCSAMA-OH
10 µM,200 µM,RQIKIWFQNRRMKWKKTQMGSPSVRCSSMS-OH [antp-Sm2S peptide (penetratin fused to the C-terminus of wild-type Smad2)]
